According to IntAct's records for PubMed 31515488:

B1: DnaJ homolog subfamily C member 30, mitochondrial (Homo sapiens), Q96LL9 (parent)
chain: MAAMRWRWWQRLLPWRLLQARGFPQNSAPSLGLGARTYSQGDCSYSRTALYDLLGVPSTATQAQIKAAYYRQCFLYHPDRNSGSAEAAERFTRISQAYVVLGSATLRRKYDRGLLSDEDLRGPGVRPSRTPAPDPGSPRTPPPTSRTHDGSRASPGANRTMFNFDAFYQAHYGEQLERERRLRARREALRKRQEYRSMKGLRWEDTRDTAAIFLIFSIFIIIGFYI
partner: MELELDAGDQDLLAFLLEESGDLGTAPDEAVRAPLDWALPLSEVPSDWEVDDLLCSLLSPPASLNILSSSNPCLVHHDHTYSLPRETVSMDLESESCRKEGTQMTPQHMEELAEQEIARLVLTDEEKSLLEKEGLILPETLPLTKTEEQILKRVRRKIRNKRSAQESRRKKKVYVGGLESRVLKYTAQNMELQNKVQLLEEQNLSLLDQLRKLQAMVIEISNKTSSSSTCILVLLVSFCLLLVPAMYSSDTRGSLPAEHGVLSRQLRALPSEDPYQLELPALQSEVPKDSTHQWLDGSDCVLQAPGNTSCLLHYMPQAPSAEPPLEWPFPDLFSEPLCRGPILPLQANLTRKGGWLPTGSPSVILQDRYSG
B2: Keratin-associated protein 5-9 (Homo sapiens), P26371 (parent)
chain: MGCCGCSGGCGSSCGGCDSSCGSCGSGCRGCGPSCCAPVYCCKPVCCCVPACSCSSCGKRGCGSCGGSKGGCGSCGCSQCSCCKPCCCSSGCGSSCCQCSCCKPYCSQCSCCKPCCSSSGRGSSCCQSSCCKPCCSSSGCGSSCCQSSCCKPCCSQSRCCVPVCYQCKI
partner: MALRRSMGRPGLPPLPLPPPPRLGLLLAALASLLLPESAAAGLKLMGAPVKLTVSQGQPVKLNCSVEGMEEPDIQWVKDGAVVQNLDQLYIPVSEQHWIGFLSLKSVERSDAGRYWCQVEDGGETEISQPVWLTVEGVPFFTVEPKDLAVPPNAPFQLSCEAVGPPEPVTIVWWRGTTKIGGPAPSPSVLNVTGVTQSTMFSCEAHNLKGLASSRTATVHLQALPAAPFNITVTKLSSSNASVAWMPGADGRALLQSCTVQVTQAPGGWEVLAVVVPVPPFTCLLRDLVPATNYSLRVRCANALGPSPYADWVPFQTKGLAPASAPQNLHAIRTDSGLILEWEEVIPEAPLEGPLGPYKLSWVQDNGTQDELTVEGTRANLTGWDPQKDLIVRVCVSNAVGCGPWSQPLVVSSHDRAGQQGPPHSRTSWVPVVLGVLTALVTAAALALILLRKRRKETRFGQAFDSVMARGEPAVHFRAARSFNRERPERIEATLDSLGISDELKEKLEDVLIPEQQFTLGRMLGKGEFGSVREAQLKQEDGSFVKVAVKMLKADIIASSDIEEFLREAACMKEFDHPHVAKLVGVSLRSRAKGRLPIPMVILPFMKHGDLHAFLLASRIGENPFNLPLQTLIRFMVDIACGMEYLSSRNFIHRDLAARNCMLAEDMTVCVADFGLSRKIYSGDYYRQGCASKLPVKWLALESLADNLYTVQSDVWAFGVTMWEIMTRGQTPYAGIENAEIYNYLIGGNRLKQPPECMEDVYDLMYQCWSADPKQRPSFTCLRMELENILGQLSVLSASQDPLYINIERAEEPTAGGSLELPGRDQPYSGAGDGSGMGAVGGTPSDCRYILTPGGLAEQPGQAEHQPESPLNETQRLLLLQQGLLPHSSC
B3: Protein FAM9B (Homo sapiens), Q8IZU0 (parent)
chain: MAAWGKKHAGKDPVRDECEERNRFTETREEDVTDEHGEREPFAETDEHTGANTKKPEDTAEDLTAKRKRMKMDKTCSKTKNKSKHALRKKQLKRQKRDYIHSLKLLNVLEEYITDEQKEEEEEEGEEEELIRIFQEQQKKWQQYRSVRRERLKEMKLLRDQFVKALEDFEDLCDRVFSDEDSELDN
partner: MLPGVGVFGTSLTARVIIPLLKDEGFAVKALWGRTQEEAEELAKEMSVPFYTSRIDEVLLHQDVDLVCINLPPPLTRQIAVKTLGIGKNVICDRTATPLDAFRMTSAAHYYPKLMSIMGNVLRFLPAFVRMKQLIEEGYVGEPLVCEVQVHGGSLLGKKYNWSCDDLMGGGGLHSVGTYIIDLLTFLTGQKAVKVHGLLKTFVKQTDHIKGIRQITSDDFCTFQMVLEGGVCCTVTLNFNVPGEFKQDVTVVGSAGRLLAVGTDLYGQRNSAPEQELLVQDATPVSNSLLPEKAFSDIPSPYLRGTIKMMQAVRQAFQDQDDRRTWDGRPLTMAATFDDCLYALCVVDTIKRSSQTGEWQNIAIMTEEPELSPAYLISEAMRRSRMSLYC
B4: G protein pathway suppressor 2 (Homo sapiens), Q13227 (parent)
chain: MPALLERPKLSNAMARALHRHIMMERERKRQEEEEVDKMMEQKMKEEQERRKKKEMEERMSLEETKEQILKLEEKLLALQEEKHQLFLQLKKVLHEEEKRRRKEQSDLTTLTSAAYQQSLTVHTGTHLLSMQGSPGGHNRPGTLMAADRAKQMFGPQVLTTRHYVGSAAAFAGTPEHGQFQGSPGGAYGTAQPPPHYGPTQPAYSPSQQLRAPSAFPAVQYLSQPQPQPYAVHGHFQPTQTGFLQPGGALSLQKQMEHANQQTGFSDSSSLRPMHPQALHPAPGLLASPQLPVQMQPAGKSGFAATSQPGPRLPFIQHSQNPRFYHK
partner: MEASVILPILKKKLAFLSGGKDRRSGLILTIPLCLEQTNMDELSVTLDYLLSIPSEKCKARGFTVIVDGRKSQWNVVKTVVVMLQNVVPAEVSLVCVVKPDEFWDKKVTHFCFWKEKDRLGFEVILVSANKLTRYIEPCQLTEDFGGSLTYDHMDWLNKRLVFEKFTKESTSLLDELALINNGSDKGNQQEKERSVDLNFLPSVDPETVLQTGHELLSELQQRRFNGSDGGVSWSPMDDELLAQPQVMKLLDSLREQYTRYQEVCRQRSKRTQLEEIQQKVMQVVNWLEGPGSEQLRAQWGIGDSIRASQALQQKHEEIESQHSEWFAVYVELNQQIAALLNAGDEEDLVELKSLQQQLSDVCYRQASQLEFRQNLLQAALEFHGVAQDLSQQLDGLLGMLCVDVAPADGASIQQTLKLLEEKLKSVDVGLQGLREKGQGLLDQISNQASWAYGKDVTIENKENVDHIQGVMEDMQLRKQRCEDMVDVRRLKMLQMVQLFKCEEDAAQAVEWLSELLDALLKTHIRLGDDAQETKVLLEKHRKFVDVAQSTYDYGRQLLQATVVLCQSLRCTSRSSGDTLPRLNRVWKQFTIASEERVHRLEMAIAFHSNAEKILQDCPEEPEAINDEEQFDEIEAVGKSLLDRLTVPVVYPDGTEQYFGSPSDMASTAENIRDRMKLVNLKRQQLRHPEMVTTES
B5: E3 ubiquitin-protein ligase LNX (Homo sapiens), Q8TBB1 (parent)
chain: MNQPESANDPEPLCAVCGQAHSLEENHFYSYPEEVDDDLICHICLQALLDPLDTPCGHTYCTLCLTNFLVEKDFCPMDRKPLVLQHCKKSSILVNKLLNKLLVTCPFREHCTQVLQRCDLEHHFQTSCKGASHYGLTKDRKRRSQDGCPDGCASLTATAPSPEVSAAATISLMTDEPGLDNPAYVSSAEDGQPAISPVDSGRSNRTRARPFERSTIRSRSFKKINRALSVLRRTKSGSAVANHADQGRENSENTTAPEVFPRLYHLIPDGEITSIKINRVDPSESLSIRLVGGSETPLVHIIIQHIYRDGVIARDGRLLPGDIILKVNGMDISNVPHNYAVRLLRQPCQVLWLTVMREQKFRSRNNGQAPDAYRPRDDSFHVILNKSSPEEQLGIKLVRKVDEPGVFIFNVLDGGVAYRHGQLEENDRVLAINGHDLRYGSPESAAHLIQASERRVHLVVSRQVRQRSPDIFQEAGWNSNGSWSPGPGERSNTPKPLHPTITCHEKVVNIQKDPGESLGMTVAGGASHREWDLPIYVISVEPGGVISRDGRIKTGDILLNVDGVELTEVSRSEAVALLKRTSSSIVLKALEVKEYEPQEDCSSPAALDSNHNMAPPSDWSPSWVMWLELPRCLYNCKDIVLRRNTAGSLGFCIVGGYEEYNGNKPFFIKSIVEGTPAYNDGRIRCGDILLAVNGRSTSGMIHACLARLLKELKGRITLTIVSWPGTFL
B6: Zinc finger protein 488 (Homo sapiens), Q96MN9 (parent)
chain: MPEWPPCLSVAPALVITMAAGKGAPLSPSAENRWRLSEPELGRGCKPVLLEKTNRLGPEAAVGRAGRDVGSAELALLVAPGKPRPGKPLPPKTRGEQRQSAFTELPRMKDRQVDAQAQEREHDDPTGQPGAPQLTQNIPRGPAGSKVFSVWPSGARSEQRSAFSKPTKRPAERPELTSVFPAGESADALGELSGLLNTTDLACWGRLSTPKLLVGDLWNLQALPQNAPLCSTFLGAPTLWLEHTQAQVPPPSSSSTTSWALLPPTLTSLGLSTQNWCAKCNLSFRLTSDLVFHMRSHHKKEHAGPDPHSQKRREEALACPVCQEHFRERHHLSRHMTSHS
B7: Myosin light polypeptide 6 (Homo sapiens), P60660 (parent)
chain: MCDFTEDQTAEFKEAFQLFDRTGDGKILYSQCGDVMRALGQNPTNAEVLKVLGNPKSDEMNVKVLDFEHFLPMLQTVAKNKDQGTYEDYVEGLRVFDKEGNGTVMGAEIRHVLVTLGEKMTEEEVEMLVAGHEDSNGCINYEAFVRHILSG
B8: Asc-type amino acid transporter 1 (Homo sapiens), Q9NS82 (parent)
chain: MAGHTQQPSGRGNPRPAPSPSPVPGTVPGASERVALKKEIGLLSACTIIIGNIIGSGIFISPKGVLEHSGSVGLALFVWVLGGGVTALGSLCYAELGVAIPKSGGDYAYVTEIFGGLAGFLLLWSAVLIMYPTSLAVISMTFSNYVLQPVFPNCIPPTTASRVLSMACLMLLTWVNSSSVRWATRIQDMFTGGKLLALSLIIGVGLLQIFQGHFEELRPSNAFAFWMTPSVGHLALAFLQGSFAFSGWNFLNYVTEEMVDARKNLPRAIFISIPLVTFVYTFTNIAYFTAMSPQELLSSNAVAVTFGEKLLGYFSWVMPVSVALSTFGGINGYLFTYSRLCFSGAREGHLPSLLAMIHVRHCTPIPALLVCCGATAVIMLVGDTYTLINYVSFINYLCYGVTILGLLLLRWRRPALHRPIKVNLLIPVAYLVFWAFLLVFSFISEPMVCGVGVIIILTGVPIFFLGVFWRSKPKCVHRLTESMTHWGQELCFVVYPQDAPEEEENGPCPPSLLPATDKPSKPQ
partner: B1 partner

Variants of: B1
Conditions: with creb3_human CREB3, O43889

| Variant | effect of a mutation on the interaction |
| --- | --- |
| T48K | with no effect |

Variants of: B2
Conditions: with tyro3_human TYRO3, Q06418

| Variant | effect of a mutation on the interaction |
| --- | --- |
| Y40C | disrupting interaction strength |

Variants of: B3
Conditions: with gfod1_human GFOD1, Q9NXC2

| Variant | effect of a mutation on the interaction |
| --- | --- |
| R23H | with no effect |

Variants of: B4
Conditions: with sesd1_human SESTD1, Q86VW0

| Variant | effect of a mutation on the interaction |
| --- | --- |
| A215T | with no effect |

Variants of: B5
Conditions: with tri23_human TRIM23, P36406
Sequence of tri23_human TRIM23, P36406 (P36406 whole entry): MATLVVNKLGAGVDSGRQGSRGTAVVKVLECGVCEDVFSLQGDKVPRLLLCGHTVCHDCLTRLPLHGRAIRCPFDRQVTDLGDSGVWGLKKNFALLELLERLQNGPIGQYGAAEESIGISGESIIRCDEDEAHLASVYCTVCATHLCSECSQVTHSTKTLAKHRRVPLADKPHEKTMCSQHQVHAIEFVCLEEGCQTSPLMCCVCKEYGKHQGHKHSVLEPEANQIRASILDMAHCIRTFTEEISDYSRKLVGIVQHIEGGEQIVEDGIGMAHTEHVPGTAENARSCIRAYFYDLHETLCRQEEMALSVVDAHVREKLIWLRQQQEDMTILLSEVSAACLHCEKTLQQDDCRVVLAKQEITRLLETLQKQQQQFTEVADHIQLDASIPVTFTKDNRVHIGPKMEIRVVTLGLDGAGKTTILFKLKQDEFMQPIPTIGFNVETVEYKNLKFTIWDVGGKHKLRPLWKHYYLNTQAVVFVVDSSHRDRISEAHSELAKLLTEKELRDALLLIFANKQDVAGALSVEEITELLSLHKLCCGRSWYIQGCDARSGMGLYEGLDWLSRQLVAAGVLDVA

| Variant | effect of a mutation on the interaction |
| --- | --- |
| R342H | with no effect |

Variants of: B5
Conditions: with clk2_human CLK2, P49760
Sequence of clk2_human CLK2, P49760 (P49760 whole entry, looked up): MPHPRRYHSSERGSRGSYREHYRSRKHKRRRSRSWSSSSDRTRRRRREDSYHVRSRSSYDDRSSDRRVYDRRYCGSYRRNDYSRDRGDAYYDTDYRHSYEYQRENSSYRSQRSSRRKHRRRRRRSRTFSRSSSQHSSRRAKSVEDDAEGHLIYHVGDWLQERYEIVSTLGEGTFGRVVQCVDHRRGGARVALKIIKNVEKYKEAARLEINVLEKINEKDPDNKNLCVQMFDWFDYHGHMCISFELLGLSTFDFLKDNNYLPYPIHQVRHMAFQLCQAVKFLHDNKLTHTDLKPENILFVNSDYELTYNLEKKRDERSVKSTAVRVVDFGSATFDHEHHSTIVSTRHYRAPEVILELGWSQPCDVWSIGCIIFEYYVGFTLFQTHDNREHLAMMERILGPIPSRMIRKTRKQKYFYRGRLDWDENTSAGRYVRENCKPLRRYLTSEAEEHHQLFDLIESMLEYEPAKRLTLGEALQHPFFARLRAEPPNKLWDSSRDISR

| Variant | effect of a mutation on the interaction |
| --- | --- |
| R342H | with no effect |

Variants of: B6
Conditions: with rbpms_human RBPMS

| Variant | effect of a mutation on the interaction |
| --- | --- |
| C230R | with no effect |
| A72V | with no effect |

Variants of: B7
Conditions: with ats12_human ADAMTS12, P58397
Sequence of ats12_human ADAMTS12, P58397 (P58397 whole entry): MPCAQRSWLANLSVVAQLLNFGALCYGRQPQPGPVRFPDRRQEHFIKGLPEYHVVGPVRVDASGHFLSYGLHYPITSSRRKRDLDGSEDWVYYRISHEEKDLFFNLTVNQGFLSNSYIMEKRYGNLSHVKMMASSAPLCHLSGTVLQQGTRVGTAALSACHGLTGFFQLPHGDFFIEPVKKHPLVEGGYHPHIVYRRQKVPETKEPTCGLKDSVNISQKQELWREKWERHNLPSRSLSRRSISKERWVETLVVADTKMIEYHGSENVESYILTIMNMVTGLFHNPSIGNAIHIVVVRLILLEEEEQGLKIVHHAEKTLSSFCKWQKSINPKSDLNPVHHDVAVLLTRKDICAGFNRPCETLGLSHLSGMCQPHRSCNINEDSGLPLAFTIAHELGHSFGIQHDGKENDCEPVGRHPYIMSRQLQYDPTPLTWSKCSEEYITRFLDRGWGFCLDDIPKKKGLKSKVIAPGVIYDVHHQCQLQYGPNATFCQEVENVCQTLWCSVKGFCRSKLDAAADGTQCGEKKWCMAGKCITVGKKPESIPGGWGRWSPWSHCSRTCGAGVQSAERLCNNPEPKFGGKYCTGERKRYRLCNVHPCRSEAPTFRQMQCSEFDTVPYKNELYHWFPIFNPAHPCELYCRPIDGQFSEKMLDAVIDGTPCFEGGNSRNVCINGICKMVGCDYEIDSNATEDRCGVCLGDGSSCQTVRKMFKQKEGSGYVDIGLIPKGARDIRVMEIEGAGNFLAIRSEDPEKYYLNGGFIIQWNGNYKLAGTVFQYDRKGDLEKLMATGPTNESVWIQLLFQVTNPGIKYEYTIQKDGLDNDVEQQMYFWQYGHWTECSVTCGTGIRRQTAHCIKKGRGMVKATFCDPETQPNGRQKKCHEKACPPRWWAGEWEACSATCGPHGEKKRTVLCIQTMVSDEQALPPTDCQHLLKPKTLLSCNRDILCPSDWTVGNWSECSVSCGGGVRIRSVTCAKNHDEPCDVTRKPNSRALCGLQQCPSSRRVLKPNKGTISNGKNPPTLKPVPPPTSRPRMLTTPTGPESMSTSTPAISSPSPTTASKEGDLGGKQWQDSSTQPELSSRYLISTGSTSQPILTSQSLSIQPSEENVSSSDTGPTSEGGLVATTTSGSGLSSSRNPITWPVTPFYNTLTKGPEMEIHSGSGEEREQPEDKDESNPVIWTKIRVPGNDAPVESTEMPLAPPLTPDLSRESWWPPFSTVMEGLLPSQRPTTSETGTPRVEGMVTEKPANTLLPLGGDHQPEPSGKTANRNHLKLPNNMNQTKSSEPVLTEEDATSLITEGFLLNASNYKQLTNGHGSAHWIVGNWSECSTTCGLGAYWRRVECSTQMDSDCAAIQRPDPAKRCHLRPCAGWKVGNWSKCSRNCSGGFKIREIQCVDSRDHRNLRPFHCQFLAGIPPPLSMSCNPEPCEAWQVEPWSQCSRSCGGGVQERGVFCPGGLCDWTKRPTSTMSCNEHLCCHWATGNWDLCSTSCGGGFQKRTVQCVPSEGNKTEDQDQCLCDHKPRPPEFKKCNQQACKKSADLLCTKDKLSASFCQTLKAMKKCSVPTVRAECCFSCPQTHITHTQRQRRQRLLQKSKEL

| Variant | effect of a mutation on the interaction |
| --- | --- |
| C138S | disrupting interaction strength |

Variants of: B7
Conditions: with cpsf5_human NUDT21, O43809
Sequence of cpsf5_human NUDT21, O43809 (O43809 whole entry): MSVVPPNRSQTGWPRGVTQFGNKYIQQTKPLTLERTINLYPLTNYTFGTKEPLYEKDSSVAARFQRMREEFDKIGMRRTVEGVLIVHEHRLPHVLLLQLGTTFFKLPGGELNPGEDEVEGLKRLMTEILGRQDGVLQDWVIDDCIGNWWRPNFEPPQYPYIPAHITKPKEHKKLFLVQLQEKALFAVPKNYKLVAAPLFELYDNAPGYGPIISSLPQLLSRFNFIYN

| Variant | effect of a mutation on the interaction |
| --- | --- |
| C138S | disrupting interaction strength |

Variants of: B8
Conditions: with creb3_human CREB3, O43889

| Variant | effect of a mutation on the interaction |
| --- | --- |
| R413Q | with no effect |
| R267H | with no effect |
